Reference: the nanobody polyreactivity screen of Harvey et al. (2022)

Assay: yeast display, Sf9 membrane polyspecificity reagent, FACS + sequencing; frameworks hold sequencing errors
Summary of the method: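 A nanobody's polyreactivity label depends on the gate it was sorted from. Yeast display cells were stained with 10% biotinylated, detergent-solubilized Sf9 membrane reagent for 1 hour at 4 °C, enriched on streptavidin microbeads and sorted by FACS. The low and high (top ~1%) gates were set on anti-HA fluorescence for expression and streptavidin fluorescence for reagent binding.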

Row | Sequence | polyreactivity (PSR sort gate)
1 | QVQLVESGGGLVQAGGILRLSCAASGSTLGYYAMGWYRQAPGKERELVAAISWSGGRTYYADSVKGRFTISRDNAKNTVYLQMNSLKQEDTAFYYCNALNRTHYTGSDFYSWGQGTQVTVSS | high polyreactivity
2 | QVQLVESGGGLVQAGGILRLSCAASGYTFYFYAMGWYRQAPGKERELVAAITGGGTTSYADSVKGRFTISRDNAKNTVYLQMNSLKPEDTAVYYCNVLFADKSDYWGQGTQVTVSS | low polyreactivity
3 | QVQLVESGGGLVQAGGILRLSCASSGSTFPTNAMGWYTQAPGKERELVAAISSSGGRTYYADSVKGRFTISRDNAKNTVDLQMNSLKPEDTAVYSCAAVWWRAYAVRMYYWGQGTQVTVSS | high polyreactivity
4 | QVQLVESGGGLVQAGGILRLSCDASGFTFGYYTMGWYRQAHGKEREFVAAITGGSGSTYYADSVKGRFTISRDNAKNTVYLQMNSLKPEDTAVYYCAASIWRGLTPLLIGFDYWGQGTQVTVSS | high polyreactivity
5 | QVQLVESGGGLVQAGGILRLSCSASGRIFQFYAMGWYRQAPGKERELVAGISWSGGSTNYADSVKGRFTISRDNAKNTVYLQMNSLKPEDSAVYYCNVDLYNWRGDSTGYDYWGQGTQVTVSS | low polyreactivity
6 | QVQLVESGGGLVQAGGILRLSWAASGRTFRYYAMGWYRQAPGKDREFVAAISWSGGSTYYADSVKGRFTISRDNAKNTVYLQMNSLKPEDTAVFYCAAESIYTWGIRGAYWGQGTQVTVSS | high polyreactivity
7 | QVQLVESGGGLVQAGGILSLSCAASGIIFYTYAMGWYRQAPGKERELVATISWDVDSTNYADSVKGRFTISRDNAKNTVYLQMNSLKPEDTAVYYCAVDYTFDSYWYWVDYYEYGYWGQGTQVTVTS | high polyreactivity
8 | QVQLVESGGGLVQAGGILSLSCAASGLIFRKNAKGWYRQAPGKEMELVAAISGRGGITYYADSVKGRFTISRDNAKNTVYLQMNSLKPEDTAVYYCATRFYRPRDGLYDYWGHGTQVTVSS | high polyreactivity
9 | QVQLVESGGGLVQAGGILSLSCAASGNIFAYNAMGWYRQAPGKERELVAAITDSGGNTFYADSVKGRFTISRDNAKNTVYLQMISVKPEDTAVYYCAADPDGWGFVYPRYVSWGQGTQVTVSS | low polyreactivity
10 | QVQLVESGGGLVQAGGNLRLSCAASGFKFTSYAMGCYIQAPGKERELVAAISTSGDRTYYADSVKGRFTISRDNAKNTVYLQMNSLQPEDTAVYYSAVVRPRSVVRYDSWGQGTQVTVSS | high polyreactivity
11 | QVQLVESGGGLVQAGGRHRLSCAASGFIFHVYAMGWYRQAPGKERELVAAISSGGSTYYADSVKGRFTISRDNAKNTVYLQMNSLKPEDTAVYYCNGARSRYRYRYDYWGQGTQVTVSS | high polyreactivity
12 | QVQLVESGGGLVQAGGRLLLSCAASGSTFTRNAMGWYRPAPGKERELVAAISSSGSRTYYADSVKGRFTISRDNAKNTVYLQMNSLIPADTAVYYCNKTKHSYLYTDDDYWGQGTQVTVSS | high polyreactivity
13 | QVQLVESGGGLVQAGGRLRISCAASGFTFEYNDMGWYRQAPGKERELVASISYDSDSTYYADSVKGRFTISRDNAKNTVYLQMNSLKPEDTAVYYCNAGSSYHEYGYWGQGTQVTVSS | high polyreactivity
14 | QVQLVESGGGLVQAGGRLRISCAASGRIFTYNTLGWSRQEPGKERELVAAIRTGGSTNYADSVKGRFTISRDNAKITVNLQMNSLKPEDTAVSYCNTVRHSTSDYWYDFWGQGTQVTLSS | low polyreactivity
15 | QVQLVESGGGLVQAGGRLRISCAASGRTFGHYAMGWYRQAPGKQRELVAAINRSGGITYYADSVRGRFTISRDNAKNTVYLQMNSLKPEDPAVDYCAAASPGRYDYWGQGTQETVSS | high polyreactivity
16 | QVQLVESGGGLVQAGGRLRISCAASGSIFGTYTMGWYRLAPGEERELVAAITSDGRTYYADSVKGRFTISRDNAKNTVYLQMNSLKPEDTAVYYCAADSSGYYWFNYWGQGTQVTVSS | low polyreactivity
17 | QVQLVESGGGLVQAGGRLRLICAASGRIFYSYAMGWYRQAPGKERELVAAISFSVGSTYYADSVKGRFTISRDNAKNTVYLQMNSLKPEDTAVYYCAASLGFPGYEYWGQGTQVTVSS | low polyreactivity
18 | QVQLVESGGGLVQAGGRLRLICDASGRIFYRYAIGWYRQAPGKERELVAVITSSGGRTYYADSVKGRFTISRDTAKNTVYLPMNSLKPEDTAVYYCTAYVRRIVRSYYWGQGTQVTVSS | high polyreactivity
19 | QVQLVESGGGLVQAGGRLRLISAASGSIFYYNAMGWYRQAPGKERELVAAISWSADSTYYADSVKGRFTISRDNAKNTVYLQMNSLKPEDSAAYYCNTDLVPWTEYWYDYWGQGTQVTVSS | low polyreactivity
20 | QVQLVESGGGLVQAGGRLRLRCAASGFTFRYNAMGCNRQAPGKERELVATISSGASTYYADSVKGRFTISRDNAKNTVYFQMNSLIPVDSAVYYCAADDLGLWFYSGVDDYYYCGQGTQVTVSS | low polyreactivity
21 | QVQLVESGGGLVQAGGRLRLRCAASGSTFSYYAMGWYRQAPGKERELVADISSGGTTNYADSVKGRFTISRDNAKNTVYLQMNSLKPEDTSVYYCNRRYSYYDGFDYWGQGTQVTVSS | low polyreactivity
22 | QVQLVESGGGLVQAGGRLRLSCAAAGSTFDGNAMGWYRQAPGKERELVADIDSIGGSTYYADSVKGRFTISRDNAKNTVYLQMNSLKPEDTAVYYCADRRFDTALVLYDYWGQGTQVTVSS | low polyreactivity

Row | Sequence | polyreactivity (PSR sort gate)
23 | QVQLVESGGGLVQAGGRLRLSCAASAFIFVTYAMGCYRQAPGKERELVAAITNSGGTTYYADSVKGRFTISRDNAKNTVYLQMNSLKPEDTAVYYCNTEDFFNVPEMDSWGQGTQVTVSS | low polyreactivity
24 | QVQLVESGGGLVQAGGRLRLSCAASGFIFKGYAKGWYRQAPGKERELVAAISYSGGNTYYADSVKGRFTISRDNAKNTVYLQMNSLKPEDTAVYYCDVRKRKVLGMYYWGQGTQVTVSS | high polyreactivity
25 | QVQLVESGGGLVQAGGRLRLSCAASGFIFPHYAMGWYRQAPGKDRELVAAITWSGSSTYYADSVKGRFTISRDNAKNTVYLQMNSLKPEDTAVYYCYADYRLWPTSRYRYGYWGQGTQVTVTS | high polyreactivity
26 | QVQLVESGGGLVQAGGRLRLSCAASGFIFSYYAMAWYIQAPGKERELVAAISSAGSTYYADSVKGRFTISRDNAKNTVYLQMNSLKPEDTAVYYCAAAIWYIKLYFVRRTEHGYWGQGTQVTVSS | low polyreactivity
27 | QVQLVESGGGLVQAGGRLRLSCAASGFILATNAMGWYRQAPGKERELVAAISYSGGSTNYADSVKGRFTISRDNAKNTVYLQMNSLKPEDTAVYYCNAGGTVIWAWYGPVYSWGQGTQVTVSS | low polyreactivity
28 | QVQLVESGGGLVQAGGRLRLSCAASGFTFAYYAMGWYRQAPGKERELVAAIRWSGTRTYYADSVKGRFTISRDHAKNTVYLQMNSLKPEDTAVYYCAKGIWYGTSGYYYWGQGTQVTVSS | high polyreactivity
29 | QVQLVESGGGLVQAGGRLRLSCAASGFTFLGSAMGWYRQAPGKERELVAAISSSGGSTYYADSVKGRFTISRDNAKNTVYLQMNSLKPEDTAVYYCAAYVAVPPSDYDYWGQGTQVTVSS | high polyreactivity
30 | QVQLVESGGGLVQAGGRLRLSCAASGFTFSVYPMGWYIQAPGKERELVAAISWSGGSTYYADSVKGRFTISRDNAKNTVYVQMNSLKPEDTAVYYCNAYFSYKYRYPEDYWGQGTQVTVSS | high polyreactivity
31 | QVQLVESGGGLVQAGGRLRLSCAASGGIFVSYAMGWYRQSPGKEREMVAAITSGGGTSYADSVKGRFTISRDNAKNTVYLQMNSLKPEDTEVYYCAARFMWSVFGRKGGYWGQGTQVTVSS | low polyreactivity
32 | QVQLVESGGGLVQAGGRLRLSCAASGGLLDIYVMGWYRQAPGKERELVAAITTRGGSTFYADSVKGRFTISRDNAKNTVYLQMNSLIPEDTAVYYCNKRLLVSRSSAQAYGYWGQGTQVTVSS | high polyreactivity
33 | QVQLVESGGGLVQAGGRLRLSCAASGGTFSKNAIGWYRQAPGKEREFVAAISSTGGDTTYYADSVKGRFTISRDNAKNTVYLQMNSVKPEDTAFYYCNSDYIFWPWYDYWGQGTQVTVSS | low polyreactivity
34 | QVQLVESGGGLVQAGGRLRLSCAASGGWYRQAPGKERELVAAISWRDSSTYYADSVKGRFTISRDNAKNTVYLQMNSLKPEDTAVYYCAVRAYPWPEYYYWGQGTQVTVSS | low polyreactivity
35 | QVQLVESGGGLVQAGGRLRLSCAASGIIFSYYAMGWYRQAPGKERELVAAISWGGGSTYYADSVKGRFTISRDYAKNTVYLQMNSLKPEDTAVYYCAADYFDFFTGYEMGYWGQGTKVTVSS | high polyreactivity
36 | QVQLVESGGGLVQAGGRLRLSCAASGIIFYGYAMGWYRQAPGKERELVAAITSYDGSTYYADSVKGRFTISRDNEKNTVYLQMNILKPEDTAFYYCAADYSTYEGWYWFDYWGQGTQVTVSS | high polyreactivity
37 | QVQLVESGGGLVQAGGRLRLSCAASGIILGRYAMGWDRQAPGKERELVAAISIRGTRTYYADSVKGRFTISRDNAKNTVYLQLNSLKPEDTAVSYCAAKTVLWGQGTQVTVSS | high polyreactivity
38 | QVQLVESGGGLVQAGGRLRLSCAASGIISSAYAIGWYRQAPGKERELVAAISSGGSTKYADSVKGRFTISRDNAKNTVYLQMNSLKPEDTAVYYCAARTRYPYKVFGYWGQGTQVTVSS | high polyreactivity
39 | QVQLVESGGGLVQAGGRLRLSCAASGITFTVFAMGWYRQAPGKERELVAAISQSGGSTYYADSVKGRFTISRDNAKNTVYLQMNILNPEDTAVYYCAKTLPSNGHYDYWGQGTQVTVSS | low polyreactivity
40 | QVQLVESGGGLVQAGGRLRLSCAASGITIYGYAMGWYRQAPGKEREFVAAISYSGASTYYADSVKGRFTISRDNAKNTVYLQMNSLKPEDTAVYYCAARVRRSLYGYWGIGTQVTVSS | high polyreactivity
41 | QVQLVESGGGLVQAGGRLRLSCAASGLTFKRYAMGWYRQAPGKERELVASITGNGGSTYYADSVKGRFTISRDNAKNTVYLQINSLKPEDTAVYYCNARRYVRTSQQPLYFYWGQGTQVTVSS | high polyreactivity
42 | QVQLVESGGGLVQAGGRLRLSCAASGLTFYLSAMGWYRQAPGKERELVAGISRSGGSTYYADAVKGRFTISRDYAKNTVYLLMNSLKPEDTAVSYCNKASAVFEFYYWGQGTQVTVSS | high polyreactivity
43 | QVQLVESGGGLVQAGGRLRLSCAASGRIFAANVMGSYRQAPGKERELVAAISWNGGSTYYADSEKGRFTISRDNAKKSVYLQLNSLKPEDTAVYYCAVRGSYRVWYDYWGQGTQVTVSS | high polyreactivity
